Laboratory results as given in a protein production outcome set (Wang et al. 2014).

Experiment: label from the status in PepcDB records

Sequence	protein production
MSQPSALPAADSLAALHPGFKSSALVWLGVMVALWGFSWPVMKICVGLAPPLWLAAIRFTSSGLCLFAFLACRGELRLPPRADWPIVASVGGLQMMAFTGLGLVAMQYTDAGRAALLAYTTPLWAVVTAWIAFGQRPTAAQGVALCVGLSGVAVICSPADMDWGDSTVLLGNALLLLSAMCWSFVILHVRRHRFTARPIDLAPWQMLLAALPLIVIAASVDGSPLTIAWTPELIGFLIYFGPIATSACFVISSEYGRRVSAFAMSNITLGVPVIGMLSSIFLLGERVTVPLIIGLTLIVSGVALAALAVNRKAAAGRADTALRSQAGKANWPTA	failed
MNFFKILLMELRAIVSHKGVLLILIGAPLIYGLLYPLPYLRDIVTQQKIALVDEDNSFLSRQLAFMAQSSNELEIAFFSPSMLEAKKLLKEEKIYGILHIPSHFEANIHKQVPVTIDFYANSNYFLIYGALANAVVESINALNDEIRFKRNAQIEEAELGTDGIKIRPIALYNPSEGYLNYALSSVFIFILHQVMLIASSMFTSSRRLELALLDRKQIALRLCTRLLVFMGAFSVFILWYFGALFSFYGIERHGSALMVFLNSLIFMLATLSLGSFLGAWIKNEAHTTQIVLISSLPLIFMMGFVWPFESLPSYLQVFVQIVPAYHGISLLGRLNQMHAEFIDVSFHFYALIAIFIASFIGSVFKLSSLKKACENA	failed
MFGLGGEAMIKTQVVKLKVNKTMQKHLDALCDYRRYCWNKGLETWQLMYEAHTLTTKDNPSPNERRVRDELVAGKADWQYDLSARCLQLAIKDLANAWKNFLDKAQPDWGKPRFKSKKAPRQGFKTDRAEIVNGKLRLDKPWSIAKDNWFDLASYEALKMRKVKIASIFKEKGLYYAALTYEENIPAKAKTHKKTAIDVNVGHFNYTDGLINVLPVRLQKLYKRIKHYQRMLARKREINGKLATKTNNYLAVRAKLQRDYRKVVNIQNDLLQKFTTRLVNDYDQIVIEDLAVKEMMMTHVASKGMQRSLFGKFRQILTYKCDWYNKELILASKMYPSTQRCAKCGYVKKGDEKITLQGNQKHGTKHNEYICYRCGYTNDRDENAVLNLLALAK	failed
MACSRFERQNMFKLCLDFTQKRAPMSQKQPINLVLSGGGTRAIGHLAIISALLERGFEIRAISGSSGGAIVGSLLASGKSPKECYDLLLKTNFVRLFAFKMSQGGLFHLKRGEAYLEKILGIKEFSELSLPLYVCVVDLKEGRPFFLSEGNIAKAVIASSSISPFMRPVEMEGRMGADGGIMNNLPIEPFLEENLPIIGINVNPNRPFHSHSMVSIAKRALFLQFYSNILERSKLCSLYLEPSGIDAYTIYDLKSLESVYNLCQEWCETNLDALIGDVPLHVLRP	failed
MNVIYPLAVPKGRRLSCEVCEAPAERMCTACTVTYYCGPVHQKADWDSIHAKICQLLIPLRTTMPFYNSEEERQHGLQQLQRRQKHLIEFCYTVAQKYLFEGRHEDAVPAALHSLRFRMNVHGLSSVELVPAYLLLAEASLGLGRIVQAEEYLSQAQWTVLKSTDCSNATHSLLHRNLGLLYIAKKNLDEARYHLANDIYFASCAYGTEDIRTSGGYFHLANIFYGLKKMELADTLYTKVSEIWYTYLNSHYQALLEARSQQTDLLGKQFVNDTGLDEAQEAEAIRILTSTLIIQESTSTKAPQKSILILKTLSILYYLMLECSKAKEYAMKALSLAETYVSEEEQRFIQELLSVISAEEKQP	failed
MLTTLQNIMKLPNEIDEYLASRNFSENTRSNYHYDLVSLQAFFEDKSLTTENLELYKIQISNLSPAAQRRKISSANQYLLFLYQRQKVDQYFKIKQVVQKKSQTAQSYHPMIKEFPEFYGPLTCPGQFLALLILEFGLNFAEIQKLKWENFNWNFKYLTIEKAGIKRVLPIREKFAIRVKAINNADELFAKSRQFLYTELKKFTNYSSKEIREQYILHQVKAGKSIYELATLLGLTTITTLEKYYR	failed
MKVGSQVIINTSHMKGMKGAEATVTGAYDTTAYVVSYTPTNGGQRVDHHKWVIQEEIKLEHHHHHH	failed
MQKEKAPIGLYFLLIAVMASWGFNVTMTKVLVSYFPTVTMTSFRIFTAAITVIIILFITKKLRLPTKREFGLIFLASIFNIVIHHFFLSNGLKLTTGTNAGLILGSAPIVVAIFSVVFLRERIGAWRALGFLAGIFGVSLVVLSNGTGISGISLGDIDIFIAMASQAFSFIIIKKLAGSMDTGLMTGYMLFLGSVMLFALSRFMEPGGVSELVAVHSWKLWLLFVVSAVVATAFGNFVYNYAVGKIGPSRSAIFMNFNPLFSLIGALLFLGEAIKIPQLVGFVFIIIGVLLGSGALMDLIYERKKTKVRDPEKLLEKEV	failed
MSFTGKDYSRFRSQQQRGNPHSSEGNTSAVHGTGQNSRPQTPINQASGASPQQGNQSPNGSVNHANPLASRLNDITLDELLDSLGRAGLLRLDPNRPPGTFWFEDDPSVPATVRSIFERDFKELHANWSMTPQHVVDRWFETFAQMYNWDKTINKRVKTEFEAKLKERMTDQVCRWKGKWREKGDAAMPRWFDPAVWAGLISFWRDPKSELKSINSRNARLHDPDGLGIHKHRSGQTSYKAHARKRCELTGETTPNFLVLLDKTHRKPDGSFIDGKSEEIYNEVSSRIQEESSQLCSNNTTESTASGGGSKEEREDIWGWFIAARSRMSSHWSFSSSRRSG	failed
MSHLLEKAAARGDLAALERLLDAGADLEWQHKGTGRTALLAATIAGHQPAVALLLARGANVQQPCKALGYSPLAWAASHGDTALAELLIAHGAALEQASPELQRTALMNAAQAGHEAMVALLLKAGANPSPVDFQQRNAWSLAEENGHAQVMQQLEQAGTGAPPAPAPAPSLPWPPLVPGTDSSADPVTQVRAYTLALYAWEQRGNALGHEALDAAFWAEPQQLLERFCTLRPRAYPRASYGYPTTHAEADELLGCQLLKPAQAEVLVRDPASRALCYEHRFVVKRVAGQWRIDSVKRRLAGTQKWANAIL	failed
MTDDRYTVISADCHAGADLLDYRPYLAKRHHDAFDAWAATYVNPYEDLLADTADRNWNSERRLAELAADGIVAEVVFPNTIPPFFPSASLMAPAPTAAEFEQRWAGLRAHNRWLADFCAAAPGRRAGVFQILLNDVEEAVKEISWAAGAGLRGGLLLPGTPPGSGLPELYSKAYDPIWAVCEELDVPVNHHAGSASPPLGDEPAARAVFMVETTWFSHRALWHLVFGGAFRRHPGLRLVLTEQGSGWIPGVLDMLDYYHGRLVAAGPKSATAEAKFGAGLDRAMGKGPSEVWRDNCFVGASFMRPHEVPLRDRIGLDKIMWGSDYPHDEGTYPYSREGLRIAYAGLPRTEIAAMAGGNAARVYGFDLSLLDPIAAKVGPTVAELARPLEEPPADATSPVFARGGSVRVW	failed
MNNFKLIVRKWYIPVLIISLITLVASAYALYWATIPETKETQISIRHYSALAYFSGGAEVKKDNPIWANGSFVTLPVYSYSLTPEYSGEFYFTTAPRGDITIETEAKIVYFYEVSDAPVWEKVYYAASNTSRGEIKTNFKINVTDLKSKINEAQNSFGVYLGKTGARIDVSVHYYGKITGKDVDETLSFKIPIDVQSTYYSFSTLNETRDFEMPSTRVVEVQKPLHMKVIPAALCTVSIIFAGLSVVYRTKYSDVSSLEREIERVSWEKKLKEVSFARMPETNLEMVEVERFEDISKAAEETFEHLFYDREKGVFFFIHGGVLYYCREK	failed
MDRLTEMEAFANVVDQGGFTDAAKKMGISKSAVSKHVSSLEARLGARLLNRTTRRVSPTEIGLAYYDRARRVLNDAGEADALVTSMQSAPSGLLRISVATDFGVNHLSPVLSDFLAEFPDITVNMVLNNRYVELISEGFDMAVRIGELEDSTLRARKLTETTKRMIASPKYFEKYGHPQKIDDLNEHKLLHYSSQASGNVWKLTAPSGEKRQVRTAGWLSVNDGQSLLNAAISGLGIAYLPCYLFAEAMEQGLVEDAMPSLPDEVQGIYAVYPPGRFTQPKVRAFIDFLVHSFADKGPMNW	not failed
MTLTPEAEIALFLRRLKWAAVIVGVLWVVSLLAPILTPFVLALLLAWLGDPLVDRIERAGRSRNVAVVLVFVLATLLFVLALMILVPMIERQIMTLIDALPQMRNWAIGTAIPWLEAKTGMQLMAWLDPERLIDWIRSHWEQAGGAAKTLFGYVSRSGFAMVTWVINLALLPILAFYFLRDWDRLVERVAAVIPRAYIGTASRLAQESNDVLGGFIRGQFLVMLALGAIYATGMSIIGLNLGLLIGIIAGLISFIPYLGATTGIVLALLAAIVQAQGLDLKLLIGVGVVFTVGQLLESYVLTPRIVGDKIGLHPVAVIFAVMAGGQLFGFLGMLLALPVAAVANVLLRYAHEQYTRSDLYAGERAGIVLRSTPERSVIIDPSKDADRL	failed
MYGGAGLYKFDKLSDWMVYLDRLSKDKPVEEGWTATVFLCIRQSDKRMIGICNVRHHLNSLGLLNVSGHIGYSIRPDERKKGYAKVQLRLALLEAKKLGIDKVLVTCADWNIGSERTILANGGVYEDSRLDESTGNMMKRYWINVTERNSI	failed
MAVPSFFTLMNLLCGFMALTQVADAAFVLACWLIVLAGFFDLLDGVMARLTGADSPFGVQLDSLSDIVSFGVAPSFLLYGYVLDTFNPLGMIVAALPALCGAVRLARYNMTADESDKEGFEGLPIPGQAIAVVALILAAENSAWDGRFALDSLRVVLPVVIVLSGLMVSSIRFDAIPMPSLEAVRTHPSKIAAYGLAGLLIVGLQERGLLIVLTAYLLHGVGRALYKLMRALVAPVPDERLGS	failed
YSIALIIPSLFEKACAHFLPSFQQALNKAGYQLLLGYSDYSIEQEEKLLSTFLESRPAGVVLFGSEHSQRTHQLLEASNTPVLEIAELSSKASYLNIGVDHFEVGKACTRHLIEQGFKNVGFIGARGNHSTLQRQLHGWQSAMIENYLTPDHFLTTHEAPSSQLGAEGLAKLLLRDSSLNALVCSHEEIAIGALFECHRRVLKVPTDIAIICLEGSSMGEHAYPSLTSAEFDYERMGTKAAEKLLHAIKGEPEERPTSMGFKLKRRASTAIN	not failed
MAISVFDLFKIGIGPSSSHTVGPMRAAALFTAALRQRQALSAVRRLEVRLYGSLSATGVGHGTDRAVIMGLMGEWPDRIDPTQIAPRMAALLDSGLLQLDGRVAVPFDWVRDMRLLDENLPYHPNAMTLVAYGEQGELHQETYYSVGGGFVVDAAQAASGQLDQDHTVLPYDFSSAEELLLLCKRHNLRVSELMLANERIWRSETDIREGLRRIWQAMRDCVDNGLRNEGILPGGLNVQRRAARLHRNLQEIGKPNVIGSTLSAMEWVNLFALAVNEENAAGGRMVTAPTNGAAGIIPAVLHYYMKFNPDAQDRDVVDYLLAAAAVGILCKKNASISGAEVGCQGEVGSACAMAAAGLAEVLGATPAQVENAAEIGLEHNLGLTCDPVGGLVQVPCIERNAIAAVKAINAAQMALRGDGQHFISLDKVIRTMRDTGADMHDKYKETSRGGLAVNAIE	failed
MIDVPFLKNVTLKKENIPSFSAYPYCLPAIRTLQSLAFHPNVTFIIGENGTGKSTLLEGIAIALGFNAEGGTKNFRFSTNDSHSSLHEYLRISKSFNTPSDGFFLRAESFYNVASYIDEIDADLEARGNPVIDSYGGISLHEQSHGESFFSLFMNRFSGQGLYILDEPEAALSPMRQLSMLIRMHELAEQGSQFVIATHSPILMAYPESTIYSLTQEGIQESALEDTEHYQTTKLFFENRDRLFHHLFNSLEHHHHHH	not failed
